From US20210292392A1 (TSB THERAPEUTICS BEIJING, published 2021)
Substitutions are numbered along the chain they refer to. Names may count otherwise. Like-named read-outs stand apart in the source and are kept apart here.

B1: P5A-2G9 (antibody, human IgG1, lambda, V domains shown)
VH: QVQLVESGGGVVQPGRSLRLSCAASGFTFSSYGMHWVRQAPGKGLEWVAVIWYDGSNKYYADSVKGRFTISRDNSKNTLYLQMNSLRAEDTAVYYCARWFHTGGYFDYWGQGTLVTVSS
VL: QPVLTQPPSSSASPGESARLTCTLPSDINVSSYNIYWYQQKPGSPPRYLLYYYSDSDKGQGSGVPSRFSGSKDASANTGILLISGLQSEDEADYYCMIWPSNALYVFGTGTKVTVLG
B2: P2B-1A1 (antibody, human IgG1, lambda, V domains shown)
VH: QVQLQESGPGLVKPSETLSLTCTVSGGSISSYYWSWIRQPPGKGLEWIGYIYYSGSTNYNPSLKSRVTISVDTSKKQFSLKLSSVTAADTAVYYCARLERDWPLDAFDIWGQGTMVTVSS
VL: QSALTQPASVSGSPGQSITISCTGTSSDVGGYNYVSWYQQHPGKAPKFMIYDVSKRPSGVSNRFSGSKSGNTASLTISGLQAEDEADYYCSSYTSNNTFAFGGGTKLTVLG
B3: P2A-1B3 (antibody, V domains shown)
VH: EVQLVESGGGLVQPGGSLRLSCVASGFSFNRYSMNWLRQTPRKGLEWLSYISASGNTIYYADSVRGRFTTSRDNAKNTLYLQMNSLRDDDTAVYFCARPAMVREGTYNWFDPWGQGTLVTVSS
VL: EIVLTQSPGTLSLSPGERATLSCRASQSVSNDYLAWYQQKPGQAPRLLIYYASSRATGIPDRFSGSGSGTDFTLTISRLEPGDSAVYYCQQYGDSPPITFGQGTRLEIKR
B4: P5A-3C8 (antibody, human IgG1, kappa, V domains shown)
VH: EVQLVESGGGLIQPGGSLRLSCAASGFTVSSNYMSWVRQAPGKGLEWVSFIYSGGSTYYADSVKGRFTISRDNSKNTLYLQMNSLRAEDTAVYYCARDLQEHGMDVWGQGTTVTVSS
VL: DIQLTQSPSSLSASVGDRVTITCRASQGISSYLAWYQQKPGKAPKLLIYAASTLQSGVPSRFSGSGSGTDFTLTISSLQPEDFATYYCQHLNSYPPGYTFGQGTKLEIKR
B5: P22A-1D1 (antibody, human IgG1, kappa, V domains shown)
VH: B4 VH with F50V, L99R, Q100D, E101Y, H102Y
VL: DIQLTQSPSFLSASVGDRVTITCRASQGISSYLAWYQQKPGKAPKLLIYAASTLQSGVPSRFSGSGSGTEFTLTISSLQPEDFATYYCLHLNSYRTFGLGTKVEIKR
B6: P2A-1A9 (antibody, V domains shown)
VH: EVQLVESGGGLVQPGRSLRLSCAASGFTFDDYAMHWVRQVPGKGLEWVSGISWNGGIIGYADSVKGRFTISRDNAKTSLYLQMNSLRAEDTALYYCAKVAGRGDYDYYYGMDVWGQGTTVTVSS
VL: QSVLTQPPSVSGAPGQRVTISCTGSSSNIGAGYDVHWYQQLPGTAPKLLIYGNNNRPSGVPDRFSGSKSGTSASLAITGLQAEDEADYYCQSYDSSLSGSVFGGGTKLTVLG
B7: P5A-1D2 (antibody, human IgG1, lambda, V domains shown)
VH: EVQLVESGGGLIQPGGSLRLSCAASGFIVSSNYMSWVRQAPGKGLEWVSIIYSGGSTYYADSVKGRFTISRDNSNNTLYLQMNSLRAEDTAVYYCARALQVGATSDYFDYWGQGTLVTVSS
VL: B6 VL with N54S, A86T, Y93C, G99V, S100V
B8: P2B-2G11 (antibody, V domains shown)
VH: B6 VH with V40A, R87K, A88P
VL: B6 VL
B9: P2B-2G4 (antibody, V domains shown)
VH: QVQLVESGGGVVQPGRSLRLSCAASGFTFSSYGMHWVRQAPGKGLEWVAVIWYDGSNKYYADSVKGRFTISRDNSKNTLYLQMNSLRAEDTAVYYCARGAAMVWLDYWGQGTLVTVSS
VL: QSALTQPRSVSGSPGQSVTISCTGTSSDVGGYNYVSWYQQHPGKAPKLMIYDVSKRPSGVPDRFSGSKSGNTASLTISGLQAEDEADYYCCSYAGSYTFVVFGGGTKLTVLG
B10: P5A-2G7 (antibody, human IgG1, lambda, V domains shown)
VH: QVQLQESGPGLVKPSETLSLTCTVSGDSVSSGSYYWSWIRQPPGKGLEWIGYIYYSGSTNYNPSLKSRVTISVDTSKNQFSLKLSSVTAADTAVYYCARERCYYGSGRAPRCVWFDPWGQGTLVTVSS
VL: B9 VL with R8A, V18I, K55N, P61S, D62N, C91S, A94T, G95S, Y97S, F99L
B11: P2B-1A10 (antibody, human IgG1, kappa, V domains shown)
VH: EVQLVESGGGLIQPGGSLRLSCAASGFTVSSNYMSWVRQAPGKGLEWVSVIYSGGSTYYADSVKGRFTISRDNSKNTLYLQMNSLRAEDTAVYYCAREGPKSITGTAFDIWGQGTIVTVSS
VL: DIQMTQSPSSLSASVGDRVTITCQASQDISNYFNWYQQKPGKAPKLLIYDASNLETGVPSRFSGSGSGTDFTFTISSLQPEDIATYYCQQYDNLPMYTFGQGTKLEIKR
B12: P5A-1B8 (antibody, human IgG1, kappa, V domains shown)
VH: EVQLVESGGGLIQPGGSLRLSCAASGFTVSSNYMSWVRQAPGKGLEWVSVIYPGGSTFYADSVKGRFTISRDNSKNTLYLQMNSLRAEDTAVYYCARETLAFDYWGQGTLVTVSS
VL: DIQLTQSPSFLSASVGDRVTITCRASQGISSYLAWYQQKPGKAPKLLIYAASTLQSGVPSRFSGSGSGTEFTLTISSLQPEDFATYYCQQLNSYPPAFGGGTKVEIKR
B13: P5A-3C12 (antibody, human IgG1, kappa, V domains shown)
VH: QITLKESGPTLVKPTQTLTLTCTFSGFSLSTSGVGVGWIRQPPGKALEWLALIYWDDDKRYSPSLKSRLTITKDTSKNQVVLTMTNMDPVDTATYYCAHSLFLTVGYSSSWSPFDYWGQGTLVTVSS
VL: not shown

Tests used:
[1] = biological target: receptor-binding domain (RBD) of the spike protein of SARS-CoV-2 (SARS-CoV-2, UniProt P0DTC2 319-541)
[2] = biological target: T1, full length spike (S) protein of SARS-CoV-2 (SARS-CoV-2, UniProt P0DTC2 14-1273); test: cell-based or functional assay
[3] = biological target: T1, full length spike (S) protein of …; test: cell-based or functional assay; remark: listed apart in the source

| Binder | Kd [1] [nM] | IC50, pseudovirus neutralization [3] [µg/mL] | Neutralizing activity (%) Mean at 0.0228624 µg/ml [3] [%] | Neutralizing activity (%) Mean at 0.0685871 µg/ml [3] [%] | Neutralizing activity (%) Mean at 0.2057613 µg/ml [3] [%] | Neutralizing activity (%) Mean at 1.851852 µg/ml [3] [%] | Neutralizing activity (%) Mean at 5.555555 µg/ml [3] [%] | Neutralizing activity (%) Mean at 16.66667 µg/ml [3] [%] | Neutralizing activity (%) Mean at 50 µg/ml [3] [%] | other results |
| --- | --- | --- | --- | --- | --- | --- | --- | --- | --- | --- |
| B1 | 15.9 |  |  |  |  |  |  |  |  |  |
| B2 |  |  |  |  |  |  |  |  |  | IC50, pseudovirus neutralization [2]: 0.687 µg/mL |
| B3 |  | 16.8 | 11.5 | -0.545 | 10.2 | 22.1 | 37.2 | 43.6 | 74.9 | Neutralizing activity (%) Mean at 0.6172839 µg/ml [3]: 23.3% |
| B4 | 1.3 |  |  |  |  |  |  |  |  |  |
| B5 | 5.79 |  |  |  |  |  |  |  |  |  |
| B6 |  | 26.3 | 12.5 | 15.9 | 15.1 | 15.9 | 34.8 | 41.2 | 62.6 | Neutralizing activity (%) Mean at 0.6172839 µg/ml [3]: 14.3% |
| B7 | 14 |  |  |  |  |  |  |  |  |  |
| B8 |  | 34.8 | 3.81 | 13.9 | 12.8 | 16 | 19 | 25.9 | 64.4 |  |
| B9 |  | 5.11 | -3.33 | -8.88 | 10.4 | 35.4 | 46.4 | 65.2 | 74.8 | Neutralizing activity (%) Mean at 0.6172839 µg/ml [3]: 20.2% |
| B10 | 3.95 |  |  |  |  |  |  |  |  |  |
| B11 | 38.4 |  |  |  |  |  |  |  |  |  |
| B12 | 4.28 |  |  |  |  |  |  |  |  |  |
| B13 | 8.47 |  |  |  |  |  |  |  |  |  |
